The record followed here is patent publication US20200317792A1 (INSMED, published 2020).

B1: CoDAH design C1 VH/C4 Vκ (antibody, V domains shown)
VH: QVQLQQSGPGLVKPSQTLSLTCTVSGFSLTNYGVHWVRQSPGKGLEWLGVIWSGGNTDYNTPFTSRLTISKDTSKNQVSLKLSSVTSNDTAVYYCARALTYYDYEFAYWGQGTLVTVSA
VL: DIVLTQSPVILSVSPGERVTFSCRASQSIGTNIHWYQQKPDQSPKLLIKYASESISGVPSRFSGSGSGTDFTLTINSVESEDIADYYCQQNNNWPTTFGQGTKLELKR
notes: Cross pair; Measured as full length IgG
B2: CoDAH design C4 VH/C1 Vκ (antibody, V domains shown)
VH: QVQLQQSGPGLVKPSQTLSLTCTVSGFSLTNYGVHWVRQSPGKGLEWLGVIWSGGNTDYNTPFTSRLTISKDNSKSQVFFKMNSLQSNDTAVYYCARALTYYDYEFAYWGQGTLVTVSA
VL: DIVLTQSPDFQSVTPKEKVTITCRASQSIGTNIHWYQQKPDQSPKLLIKYASESISGVPSRFSGSGSGTDFTLTINSVESEDIADYYCQQNNNWPTTFGAGTKLELKR
notes: as for B1
B3: CoDAH design C4 VH/C2 Vκ (antibody, V domains shown)
VH: QVQLQQSGPGLVKPSQTLSLTCTVSGFSLTNYGVHWVRQSPGKGLEWLGVIWSGGNTDYNTPFTSRLTISKDNSKSQVFFKMNSLQSNDTAVYYCARALTYYDYEFAYWGQGTLVTVSA
VL: DIVLTQSPVFLSVTPGEKVTITCRASQSIGTNIHWYQQKPDQSPKLLIKYASESISGVPSRFSGSGSGTDFTLTINSVESEDIADYYCQQNNNWPTTFGAGTKLELKR
notes: as for B1
B4: CoDAH design C1 VH/C2 Vκ (antibody, V domains shown)
VH: QVQLQQSGPGLVKPSQTLSLTCTVSGFSLTNYGVHWVRQSPGKGLEWLGVIWSGGNTDYNTPFTSRLTISKDTSKNQVSLKLSSVTSNDTAVYYCARALTYYDYEFAYWGQGTLVTVSA
VL: DIVLTQSPVFLSVTPGEKVTITCRASQSIGTNIHWYQQKPDQSPKLLIKYASESISGVPSRFSGSGSGTDFTLTINSVESEDIADYYCQQNNNWPTTFGAGTKLELKR
notes: as for B1
B5: CoDAH design C3 VH/C4 Vκ (antibody, V domains shown)
VH: QVQLQQSGPGLVKPSETLSLTCTVSGFSLTNYGVHWVRQSPGKGLEWLGVIWSGGNTDYNTPFTSRLTISVDTSKNQVSLKLSSVTSNDTAVYYCARALTYYDYEFAYWGQGTLVTVSA
VL: DIVLTQSPVILSVSPGERVTFSCRASQSIGTNIHWYQQKPDQSPKLLIKYASESISGVPSRFSGSGSGTDFTLTINSVESEDIADYYCQQNNNWPTTFGQGTKLELKR
notes: as for B1
B6: CoDAH design C4 VH/C3 Vκ (antibody, V domains shown)
VH: QVQLQQSGPGLVKPSQTLSLTCTVSGFSLTNYGVHWVRQSPGKGLEWLGVIWSGGNTDYNTPFTSRLTISKDNSKSQVFFKMNSLQSNDTAVYYCARALTYYDYEFAYWGQGTLVTVSA
VL: DILLTQSPVILSVSPGERVTFSCRASQSIGTNIHWYQQKPDQSPKLLIKYASESISGVPSRFSGSGSGTDFTLTINSVESEDIADYYCQQNNNWPTTFGAGTKLELKR
notes: as for B1
B7: CoDAH design C3 VH/C5 Vκ (antibody, V domains shown)
VH: QVQLQQSGPGLVKPSETLSLTCTVSGFSLTNYGVHWVRQSPGKGLEWLGVIWSGGNTDYNTPFTSRLTISVDTSKNQVSLKLSSVTSNDTAVYYCARALTYYDYEFAYWGQGTLVTVSA
VL: EIVLTQSPVILSVSPGERVTFSCRASQSIGTNIHWYQQKTDQSPRLLIKYASESISGIPSRFSGSGSGTDFTLTINSVESEDIADYYCQQNNNWPTTFGQGTKLELKR
notes: as for B1
B8: CoDAH design C1 VH/C5 Vκ (antibody, V domains shown)
VH: QVQLQQSGPGLVKPSQTLSLTCTVSGFSLTNYGVHWVRQSPGKGLEWLGVIWSGGNTDYNTPFTSRLTISKDTSKNQVSLKLSSVTSNDTAVYYCARALTYYDYEFAYWGQGTLVTVSA
VL: EIVLTQSPVILSVSPGERVTFSCRASQSIGTNIHWYQQKTDQSPRLLIKYASESISGIPSRFSGSGSGTDFTLTINSVESEDIADYYCQQNNNWPTTFGQGTKLELKR
notes: as for B1
B9: CoDAH design C2 VH/C1 Vκ (antibody, V domains shown)
VH: QVQLQQSGPGLVKPSQTLSLTCTVSGFSLTNYGVHWVRQSPGKGLEWLGVIWSGGNTDYNTPFTSRLTISVDTSKNQVSLKLSSVTSNDTAVYYCARALTYYDYEFAYWGQGTLVTVSA
VL: DIVLTQSPDFQSVTPKEKVTITCRASQSIGTNIHWYQQKPDQSPKLLIKYASESISGVPSRFSGSGSGTDFTLTINSVESEDIADYYCQQNNNWPTTFGAGTKLELKR
notes: as for B1
B10: CoDAH design C2 VH/C5 Vκ (antibody, V domains shown)
VH: QVQLQQSGPGLVKPSQTLSLTCTVSGFSLTNYGVHWVRQSPGKGLEWLGVIWSGGNTDYNTPFTSRLTISVDTSKNQVSLKLSSVTSNDTAVYYCARALTYYDYEFAYWGQGTLVTVSA
VL: EIVLTQSPVILSVSPGERVTFSCRASQSIGTNIHWYQQKTDQSPRLLIKYASESISGIPSRFSGSGSGTDFTLTINSVESEDIADYYCQQNNNWPTTFGQGTKLELKR
notes: as for B1
B11: CoDAH design C3 VH/C2 Vκ (antibody, V domains shown)
VH: QVQLQQSGPGLVKPSETLSLTCTVSGFSLTNYGVHWVRQSPGKGLEWLGVIWSGGNTDYNTPFTSRLTISVDTSKNQVSLKLSSVTSNDTAVYYCARALTYYDYEFAYWGQGTLVTVSA
VL: DIVLTQSPVFLSVTPGEKVTITCRASQSIGTNIHWYQQKPDQSPKLLIKYASESISGVPSRFSGSGSGTDFTLTINSVESEDIADYYCQQNNNWPTTFGAGTKLELKR
notes: as for B1
B12: CoDAH design C1 VH/C3 Vκ (antibody, V domains shown)
VH: QVQLQQSGPGLVKPSQTLSLTCTVSGFSLTNYGVHWVRQSPGKGLEWLGVIWSGGNTDYNTPFTSRLTISKDTSKNQVSLKLSSVTSNDTAVYYCARALTYYDYEFAYWGQGTLVTVSA
VL: DILLTQSPVILSVSPGERVTFSCRASQSIGTNIHWYQQKPDQSPKLLIKYASESISGVPSRFSGSGSGTDFTLTINSVESEDIADYYCQQNNNWPTTFGAGTKLELKR
notes: as for B1
B13: CoDAH design C4 VH/C5 Vκ (antibody, V domains shown)
VH: QVQLQQSGPGLVKPSQTLSLTCTVSGFSLTNYGVHWVRQSPGKGLEWLGVIWSGGNTDYNTPFTSRLTISKDNSKSQVFFKMNSLQSNDTAVYYCARALTYYDYEFAYWGQGTLVTVSA
VL: EIVLTQSPVILSVSPGERVTFSCRASQSIGTNIHWYQQKTDQSPRLLIKYASESISGIPSRFSGSGSGTDFTLTINSVESEDIADYYCQQNNNWPTTFGQGTKLELKR
notes: as for B1
B14: CoDAH design C4 VH/C4 Vκ (antibody, V domains shown)
VH: QVQLQQSGPGLVKPSQTLSLTCTVSGFSLTNYGVHWVRQSPGKGLEWLGVIWSGGNTDYNTPFTSRLTISKDNSKSQVFFKMNSLQSNDTAVYYCARALTYYDYEFAYWGQGTLVTVSA
VL: DIVLTQSPVILSVSPGERVTFSCRASQSIGTNIHWYQQKPDQSPKLLIKYASESISGVPSRFSGSGSGTDFTLTINSVESEDIADYYCQQNNNWPTTFGQGTKLELKR
notes: Pareto optimal design; Measured as full length IgG
B15: CoDAH design C2 VH/C3 Vκ (antibody, V domains shown)
VH: QVQLQQSGPGLVKPSQTLSLTCTVSGFSLTNYGVHWVRQSPGKGLEWLGVIWSGGNTDYNTPFTSRLTISVDTSKNQVSLKLSSVTSNDTAVYYCARALTYYDYEFAYWGQGTLVTVSA
VL: DILLTQSPVILSVSPGERVTFSCRASQSIGTNIHWYQQKPDQSPKLLIKYASESISGVPSRFSGSGSGTDFTLTINSVESEDIADYYCQQNNNWPTTFGAGTKLELKR
notes: Cross pair; Measured as full length IgG; also called C3 Vκ/C2 VH
B16: CoDAH design C2 VH/C4 Vκ (antibody, V domains shown)
VH: QVQLQQSGPGLVKPSQTLSLTCTVSGFSLTNYGVHWVRQSPGKGLEWLGVIWSGGNTDYNTPFTSRLTISVDTSKNQVSLKLSSVTSNDTAVYYCARALTYYDYEFAYWGQGTLVTVSA
VL: DIVLTQSPVILSVSPGERVTFSCRASQSIGTNIHWYQQKPDQSPKLLIKYASESISGVPSRFSGSGSGTDFTLTINSVESEDIADYYCQQNNNWPTTFGQGTKLELKR
notes: as for B1
B17: CoDAH design C2 VH/C2 Vκ (antibody, V domains shown)
VH: QVQLQQSGPGLVKPSQTLSLTCTVSGFSLTNYGVHWVRQSPGKGLEWLGVIWSGGNTDYNTPFTSRLTISVDTSKNQVSLKLSSVTSNDTAVYYCARALTYYDYEFAYWGQGTLVTVSA
VL: DIVLTQSPVFLSVTPGEKVTITCRASQSIGTNIHWYQQKPDQSPKLLIKYASESISGVPSRFSGSGSGTDFTLTINSVESEDIADYYCQQNNNWPTTFGAGTKLELKR
notes: as for B14
B18: CoDAH design C3 VH/C1 Vκ (antibody, V domains shown)
VH: QVQLQQSGPGLVKPSETLSLTCTVSGFSLTNYGVHWVRQSPGKGLEWLGVIWSGGNTDYNTPFTSRLTISVDTSKNQVSLKLSSVTSNDTAVYYCARALTYYDYEFAYWGQGTLVTVSA
VL: DIVLTQSPDFQSVTPKEKVTITCRASQSIGTNIHWYQQKPDQSPKLLIKYASESISGVPSRFSGSGSGTDFTLTINSVESEDIADYYCQQNNNWPTTFGAGTKLELKR
notes: as for B1
B19: CoDAH design C3 VH/C3 Vκ (antibody, V domains shown)
VH: QVQLQQSGPGLVKPSETLSLTCTVSGFSLTNYGVHWVRQSPGKGLEWLGVIWSGGNTDYNTPFTSRLTISVDTSKNQVSLKLSSVTSNDTAVYYCARALTYYDYEFAYWGQGTLVTVSA
VL: DILLTQSPVILSVSPGERVTFSCRASQSIGTNIHWYQQKPDQSPKLLIKYASESISGVPSRFSGSGSGTDFTLTINSVESEDIADYYCQQNNNWPTTFGAGTKLELKR
notes: as for B14
B20: CoDAH design C1 VH/C1 Vκ (antibody, V domains shown)
VH: QVQLQQSGPGLVKPSQTLSLTCTVSGFSLTNYGVHWVRQSPGKGLEWLGVIWSGGNTDYNTPFTSRLTISKDTSKNQVSLKLSSVTSNDTAVYYCARALTYYDYEFAYWGQGTLVTVSA
VL: DIVLTQSPDFQSVTPKEKVTITCRASQSIGTNIHWYQQKPDQSPKLLIKYASESISGVPSRFSGSGSGTDFTLTINSVESEDIADYYCQQNNNWPTTFGAGTKLELKR
notes: as for B14
B21: CoDAH design C5 VH/C4 Vκ (antibody, V domains shown)
VH: QVQLQQSGPGLVKPSETLSITCTVSGFSLTNYGVHWVRQSPGKGLEWLGVIWSGGNTDYNTPFTSRLTINKDNSKSQVFFKMNSLQSNDTAVYYCARALTYYDYEFAYWGQGTLVTVSA
VL: DIVLTQSPVILSVSPGERVTFSCRASQSIGTNIHWYQQKPDQSPKLLIKYASESISGVPSRFSGSGSGTDFTLTINSVESEDIADYYCQQNNNWPTTFGQGTKLELKR
notes: as for B1

In this assay the target is T1, recombinant, soluble his tagged human EGFR (Sino Biologicals) (human, UniProt P00533 25-645).
T1 construct: extracellular domain; also called human epidermal growth factor receptor; not shown: his tag
In words: BLI (ForteBio Octet Red), IgG on protein A tips, 100 nM soluble EGFR.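 Note: antibody binding to EGFR read out as on and off rates plus equilibrium affinity, calculated with the Octet instrument software.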 For orientation: Biolayer interferometry detects binding as a change in optical thickness at a sensor tip.
In the case of B1, the binding result is on record as “binds”. Then B2, with “binds”; and B3, with “binds”; and B4, with “binds”. With B5 the entry was “binds”; with B6, “binds”. For B7, the binding result is on record as “binds”.

With B8, the binding result is on record as “binds”. As for B9, the binding result is reported as “binds”.

As to B10, the binding result is “binds”. For the molecule B11, the binding result was “binds”. Take B12: the binding result was “binds”. As to B13, the binding result is “binds”. With B14, the binding result is given as “binds”. For the molecule B15, the binding result is on record as “binds”.

In the case of B16, the binding result is given as “binds”.

For B17, the binding result was “binds”. With B18 the entry was “binds”; with B19, “binds”. In the case of B20, the binding result is “binds”. In the case of B21, the binding result is reported as “binds”.
